According to publication PMC4019695:
pKd: −log10 of the molar value.

Columns and labels:
[1] = target: Drosophila 80S ribosome (Drosophila (endogenous in fly embryos)) (UniProt P46222); assay: FRET or BRET
[2] = target: Drosophila 80S ribosome (Drosophila (endogenous in fly embryos)) (UniProt P46222); assay: SEC

Substance | pKd [1] | fold reduction of binding against NT-dFMRP [2] [fold]
NT-dFMRP KH2 (I307N) mutant (from UniProt Q9NFU0 220-681) (domain or fragment) | 7.21 | 
NT-dFMRP ΔRGG mutant, residues 220-413 (from UniProt Q9NFU0 220-413) (domain or fragment) | < 5.70 | 
NT-dFMRP KH1 (I244N) mutant (from UniProt Q9NFU0 220-681) (domain or fragment) | 6.89 | 2
